The supplement of paper PMC10567573

B1: IMPA1 (parent)
chain: FIGEESVAAGEKSILTDNPTWIID

Variants of: B1
Assay: protein stability index of a GFP-peptide fusion (GPS, HEK-293T) (PSI 1-6); higher = more stable
Details: c terminus: a fixed tail appended
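Also: lentivirally expressed fusions sorted by FACS into six bins by GFP to DsRed ratio, PSI derived from sequencing read proportions per bin multiplied by bin number.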

First: FIGEESVAAGEKSILADNPTWIID [T16A]
Second: FIGEESVAAGEKSILCDNPTWIID [T16C]
The protein stability index of the first is lower: 2.35 for the first, 3.16 for the second.

First: FIGEESVAAGEKSILQDNPTWIID [T16Q]
Second: FIGEESVAAGEKSILSDNPTWIID [T16S]
The protein stability index of the first is higher: 2.19 for the first, 1.94 for the second.

First: FIGEESVAAGEKSILIDNPTWIID [T16I]
Second: FIGEESVAAGEKSILRDNPTWIID [T16R]
The protein stability index of the first is lower: 1.41 for the first, 2.37 for the second.

Compared with FIGEESVAAGEKSILHDNPTWIID [T16H], FIGEESVAAGEKSILPDNPTWIID [T16P] is lower in protein stability index: 2.38 for the first, 1.26 for the second.

First: FIGEESVAAGEKSILDDNPTWIID [T16D]
Second: FIGEESVAAGEKSILYDNPTWIID [T16Y]
The protein stability index of the first is higher: 3.17 for the first, 1.64 for the second.

Compared with FIGEESVAAGEKSILFDNPTWIID [T16F], FIGEESVAAGEKSILNDNPTWIID [T16N] is higher in protein stability index: 1.66 for the first, 2.89 for the second.

First: FIGEESVAAGEKSILEDNPTWIID [T16E]
Second: FIGEESVAAGEKSILVDNPTWIID [T16V]
The protein stability index of the first is higher: 2.64 for the first, 2.21 for the second.

Going from FIGEESVAAGEKSILGDNPTWIID [T16G] to FIGEESVAAGEKSILWDNPTWIID [T16W], the protein stability index falls from 2.11 to 1.72.

Compared with FIGEESVAAGEKSILLDNPTWIID [T16L], FIGEESVAAGEKSILKDNPTWIID [T16K] is higher in protein stability index: 1.83 for the first, 2.73 for the second.

Going from FIGEESVAAGEKSILMDNPTWIID [T16M] to FIGEESVAAGEKSILTDRPTWIID [N18R], the protein stability index falls from 2.38 to 2.31.

First: FIGEESVAAGEKSILTDTPTWIID [N18T]
Second: FIGEESVAAGEKSILTDHPTWIID [N18H]
The protein stability index of the first is lower: 2.84 for the first, 2.95 for the second.

First: FIGEESVAAGEKSILTDWPTWIID [N18W]
Second: FIGEESVAAGEKSILTDQPTWIID [N18Q]
The protein stability index of the first is lower: 2.1 for the first, 2.86 for the second.

Compared with FIGEESVAAGEKSILTDPPTWIID [N18P], FIGEESVAAGEKSILTDCPTWIID [N18C] is lower in protein stability index: 3.14 for the first, 2.64 for the second.

Going from FIGEESVAAGEKSILTDKPTWIID [N18K] to FIGEESVAAGEKSILTDFPTWIID [N18F], the protein stability index falls from 2.73 to 2.46.

Going from FIGEESVAAGEKSILTDYPTWIID [N18Y] to FIGEESVAAGEKSILTDDPTWIID [N18D], the protein stability index rises from 2.62 to 3.68.

Going from FIGEESVAAGEKSILTDLPTWIID [N18L] to FIGEESVAAGEKSILTDGPTWIID [N18G], the protein stability index falls from 2.88 to 2.71.

Going from FIGEESVAAGEKSILTDAPTWIID [N18A] to FIGEESVAAGEKSILTDSPTWIID [N18S], the protein stability index rises from 3.01 to 3.05.

Compared with FIGEESVAAGEKSILTDMPTWIID [N18M], FIGEESVAAGEKSILTDVPTWIID [N18V] is higher in protein stability index: 2.6 for the first, 2.75 for the second.

Going from FIGEESVAAGEKSILTDIPTWIID [N18I] to FIGEESVAAGEKSILTDEPTWIID [N18E], the protein stability index rises from 2.71 to 3.48.

Compared with FIGEESVAAGEKVILTDNPTWIID [S13V], FIGEESVAAGEKRILTDNPTWIID [S13R] is lower in protein stability index: 2.47 for the first, 2.4 for the second.

Going from FIGEESVAAGEKYILTDNPTWIID [S13Y] to FIGEESVAAGEKTILTDNPTWIID [S13T], the protein stability index falls from 2 to 1.89.

Compared with FIGEESVAAGEKWILTDNPTWIID [S13W], FIGEESVAAGEKSILTDNPTWEID [I22E] is higher in protein stability index: 2.21 for the first, 4.71 for the second.

First: FIGEESVAAGEKSILTDNPTWRID [I22R]
Second: FIGEESVAAGEKSILTDNPTWKID [I22K]
The protein stability index of the first is lower: 2.09 for the first, 2.48 for the second.

Compared with FIGEESVAAGEKSILTDNPTWGID [I22G], FIGEESVAAGEKSILTDNPTWNID [I22N] is higher in protein stability index: 3.11 for the first, 3.12 for the second.

Going from FIGEESVAAGEKSILTDNPTWTID [I22T] to FIGEESVAAGEKSILTDNPTWQID [I22Q], the protein stability index rises from 1.68 to 2.75.

Going from FIGEESVAAGEKSILTDNPTWFID [I22F] to FIGEESVAAGEKSILTDNPTWPID [I22P], the protein stability index rises from 2.01 to 3.76.

Going from FIGEESVAAGEKSILTDNPTWYID [I22Y] to FIGEESVAAGEKSILTDNPTWAID [I22A], the protein stability index falls from 2.82 to 1.76.

Going from FIGEESVAAGEKSILTDNPTWMID [I22M] to FIGEESVAAGEKSILTDNPTWCID [I22C], the protein stability index falls from 2.57 to 2.18.

Going from FIGEESVAAGEKSILTDNPTWSID [I22S] to FIGEESVAAGEKSILTDNPTWDID [I22D], the protein stability index rises from 2.35 to 4.58.

Compared with FIGEESVAAGEKSILTDNPTWWID [I22W], FIGEESVAAGEKSILTDNPTWHID [I22H] is higher in protein stability index: 2.33 for the first, 3.37 for the second.

Compared with FIGEESVAAGEKSILTDNPTWLID [I22L], FIGEESVAAGEKSILTDNPTWVID [I22V] is lower in protein stability index: 2.67 for the first, 2.31 for the second.

First: FIGEESVAAGEKSILTRNPTWIID [D17R]
Second: FIGEESVAAGEKSILTYNPTWIID [D17Y]
The protein stability index of the first is higher: 1.68 for the first, 1.48 for the second.

Going from FIGEESVAAGEKSILTCNPTWIID [D17C] to FIGEESVAAGEKSILTMNPTWIID [D17M], the protein stability index rises from 1.66 to 2.13.

Going from FIGEESVAAGEKSILTFNPTWIID [D17F] to FIGEESVAAGEKSILTGNPTWIID [D17G], the protein stability index falls from 2.25 to 2.08.

Going from FIGEESVAAGEKSILTHNPTWIID [D17H] to FIGEESVAAGEKSILTINPTWIID [D17I], the protein stability index rises from 1.93 to 2.7.

Compared with FIGEESVAAGEKSILTKNPTWIID [D17K], FIGEESVAAGEKSILTQNPTWIID [D17Q] is higher in protein stability index: 1.46 for the first, 1.78 for the second.

Compared with FIGEESVAAGEKSILTENPTWIID [D17E], FIGEESVAAGEKSILTPNPTWIID [D17P] is lower in protein stability index: 2.6 for the first, 2 for the second.

Compared with FIGEESVAAGEKSILTWNPTWIID [D17W], FIGEESVAAGEKSILTTNPTWIID [D17T] is lower in protein stability index: 2.23 for the first, 1.63 for the second.

Compared with FIGEESVAAGEKSILTANPTWIID [D17A], FIGEESVAAGEKSILTSNPTWIID [D17S] is higher in protein stability index: 1.54 for the first, 1.71 for the second.

First: FIGEESVAAGEKSILTNNPTWIID [D17N]
Second: FIGEESVAAGEKSILTVNPTWIID [D17V]
The protein stability index of the first is higher: 1.85 for the first, 1.55 for the second.

Going from FIGEESVAAGEKSILTLNPTWIID [D17L] to FIGEESVAAGEKSILTDNCTWIID [P19C], the protein stability index falls from 2.06 to 1.76.

First: FIGEESVAAGEKSILTDNGTWIID [P19G]
Second: FIGEESVAAGEKSILTDNKTWIID [P19K]
The protein stability index of the first is higher: 3.13 for the first, 2.2 for the second.

Going from FIGEESVAAGEKSILTDNATWIID [P19A] to FIGEESVAAGEKSILTDNQTWIID [P19Q], the protein stability index rises from 2.41 to 2.92.

Compared with FIGEESVAAGEKSILTDNVTWIID [P19V], FIGEESVAAGEKSILTDNHTWIID [P19H] is higher in protein stability index: 2.39 for the first, 3.02 for the second.

First: FIGEESVAAGEKSILTDNWTWIID [P19W]
Second: FIGEESVAAGEKSILTDNSTWIID [P19S]
The protein stability index of the first is lower: 1.96 for the first, 2.38 for the second.

Compared with FIGEESVAAGEKSILTDNETWIID [P19E], FIGEESVAAGEKSILTDNITWIID [P19I] is lower in protein stability index: 3.51 for the first, 2.32 for the second.

Compared with FIGEESVAAGEKSILTDNRTWIID [P19R], FIGEESVAAGEKSILTDNDTWIID [P19D] is higher in protein stability index: 1.96 for the first, 3.09 for the second.
